In PMC3751554:

Tests used:
[1] = biological target: TRIMCypA from Macaca mulatta (Macaca mulatta)
[2] = biological target: TRIMCypA from Macaca fascicularis (Macaca fascicularis)
[3] = biological target: owl monkey TRIMCypA fusion protein (owl monkey (Aotus sp.))

Substance | restriction of infection: ratio of infection titers on CHO cells stably expressing mamu-TRIMCypA over control CHO cells (infectivity ratio) [1] | restriction of infection: ratio of infection titers on CHO cells stably expressing mafa-TRIMCypA over control CHO cells (infectivity ratio) [2] | restriction of infection: ratio of infected cells in CHO cells stably expressing owl-TRIMCypA over control CHO cells (infectivity ratio) [3]
HIV-2ROD capsid (CA) (natural protein) | < 0.2 |  | 
SIVgsn capsid (CA) (natural protein) |  | < 0.4 | 
SIVmnd1 capsid (CA) (natural protein) |  | < 0.4 | < 0.4
